Source: patent US20090304581A1

Target: CD20 on Daudi cells (human) (UniProt P11836)
Assay: live-cell radioimmunoreactivity assay on Daudi cells, cell pellet cpm over total cpm

UniProt P11836, sequence (P11836 whole entry): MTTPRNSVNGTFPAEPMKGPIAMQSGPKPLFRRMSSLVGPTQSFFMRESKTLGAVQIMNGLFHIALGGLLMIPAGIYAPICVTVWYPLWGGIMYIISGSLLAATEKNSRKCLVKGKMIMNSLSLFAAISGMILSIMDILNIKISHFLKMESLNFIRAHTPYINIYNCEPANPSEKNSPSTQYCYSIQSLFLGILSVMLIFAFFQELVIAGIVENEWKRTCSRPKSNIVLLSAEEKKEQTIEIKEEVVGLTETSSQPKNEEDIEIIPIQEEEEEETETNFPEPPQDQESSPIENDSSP

Work on SWNT-rituximab-111In*DOTA (antibody) yielded a maximum binding (immunoreactive fraction) of 29%.
